Source: US20070077212A1, “Protein with activity of hydrolyzing amylopectin, starch, glycogen and amylose, gene encoding the same, cell expressing the same, and production method thereof” (LIFENZA CO., LTD., priority 2004, published 2007)
Entries after “also recorded” stand apart in the source; their conditions may differ.

Key:
Type in all cases: biochemical
[1] = Assay for optimal pH and temperature and stability of enzyme
Experimental: (§1) The reducing value of the carbohydrolase was determined by a DNS (3,5-dinitrosalicylic acid) method in combination with a copper-bicinchoninate method. That is, 100 μl of copper-bicinchoninate was added to 100 μl of an enzyme solution, and allowed to react at 80C. for 35 min, followed by being cooled for about 15 min. Absorbance was measured at 560 nm.
The enzyme LSA was assayed for optimal pH by measuring reaction rates in the range of pH 3-9 at intervals of pH 1.0. For this purpose, 2OmM citrate phosphate buffer (pH 4.0), citrate/phosphate buffer (pH 5-6) and sodium phosphate buffer (pH 7-9) were used. After reaction at 37° C. for […], the carbohydrolase activity of the enzyme was determined by a DNS method. Also, the pH stability of the enzyme was measured after the enzyme was added to each buffer and allowed to stand for 3 hours at 22° C.
The optimal temperature of the enzyme was determined by measuring the reaction rates of the enzyme which had been allowed to stand for 30 min at various temperatures (20-80° C., 10C. interval). […] 1% (w/v) starch was used as a substrate in determining the activity and stability of the enzyme.

[2] = Relative substrate specificity of LSA enzyme: pullulan
Experimental: as §1

[3] = Relative substrate specificity of LSA enzyme: amylose
Experimental: as §1

[4] = Relative substrate specificity of LSA enzyme: glycogen
Experimental: as §1

[5] = Effect of metal ions, chelating agents and denaturants on LSA enzyme activity
Experimental: as §1
Effects of EDTA, EGTA and metal ions on enzyme activity were measured. EDTA and EGTA were each used at a final concentration of 1 mM. As for metal ions, they included ZnCl2, CuS04, CaCl2 and MgCl2 and were used at a final concentration of 5 mM. The enzyme activity was also measured in the presence of dodesyl sulfate (SDS, 0.1%, 0.5%, 1%, 2%), urea (2M), acetone (0-80%) and ethanol (0-70%). For the measurement, the enzyme was allowed to react at 37° C. for 30 min with 2% starch as a substrate.

[6] = TLC analysis of reaction with maltooligosaccharide series; details: mixture of maltooligosaccharide series
Experimental: FIG. 8 is a photograph of a TLC result showing the enzymatic activity of the LSA of the present invention in which starch samples (1% w/v) are analyzed, along with maltodextrin (Mn), before and after being hydrolyzed by the enzyme (lanes 1 and 2 in panel A, respectively) and maltooligosaccharide samples (1% w/v) are analyzed after purified LSA is allowed to react with a series of maltooligosaccharides including G1 (glucose) to G7 (maltoheptaose) (lanes 1 to 7 in panel B, respectively).
(§2) Subsequently, the malto oligosaccharides were degraded into maltopentaose and lower oligosaccharides.

[7] = Activity staining on starch-containing PAGE gel; details: 30 min at 37° C.
Experimental: For sodium dodecyl sulfate-polyacrylamide gel electrophoresis (SDS-PAGE), protein samples were loaded onto 10% polyacrylamide gel in Tris-glycine buffer (pH 8.8). The polyacrylamide gel contained 1% starch in order to detect whether the protein samples could degrade starch polysaccharide. After completion of the electrophoresis, SDS was removed by washing the gel with 50 mM Tris-HCl buffer (pH 8.0) and a 20% 2-propanol solution for 1 hour. The gel was immersed in a reaction buffer (50 mM sodium acetate, 5 mM CaCl2, pH 5) at 37° C. for […] and then in an iodide solution (0.3% iodide, 3% potassium iodide) for 10 min, and washed with distilled water. The starch hydrolyzing activity was identified by the appearance of a clear zone against a brown background.
Following IPTG induction in E. coli, the cells were harvested, and disrupted by sonication. Proteins were purified using His-tagged affinity column and analyzed by SDS-PAGE (10%) (FIG. 3, lane 1). The band for the mainly expressed protein corresponded to 73 kDa (LSA+His-tag). To examine the ability of the purified protein to degrade polysaccharides such as starch, electrophoresis was carried out using a PAGE gel containing starch. After completion of the electrophoresis, the gel was allowed to stand for 30 min at 37° C. and stained with an iodine solution. […]

[8] = Relative substrate specificity of LSA enzyme: starch
Experimental: as §1

[9] = Relative substrate specificity of LSA enzyme: amylopectin
Experimental: as §1

[10] = Relative substrate specificity of LSA enzyme: amylodextrin
Experimental: as §1

[11] = TLC analysis of starch hydrolysis products; details: 2% starch
Source text: as §2

[12] = Relative substrate specificity of LSA enzyme: dextran
Experimental: as §1

[13] = Relative substrate specificity of LSA enzyme: alpha-cyclodextrin
Experimental: as §1

B1: LSA: carbohydrolase derived from Lipomyces starkeyi, amino acid sequence SEQ. ID. No. 1, expressed in E. coli; hydrolyzes amylopectin, starch, glycogen and amylose (protein)
chain: MLLINFFIAVLGVISLSPIVVARYILRRDCTTVTVLSSPESVTSSNHVELASHEMCDSTLSASLYIYNDDYDKIVTLYYLTSSGTTGSVTASYSSSLSNNWELWSLSAPAADAVEITGASYVDSDASATYATSFDIPLTTTTTSSSSASATSTSSLTTTSSVSISVSVPTGTAANWRGRAIYEIVTDRFARTDGSTTYLCDVTDRVYCGGSYEGIINMLDYIEGMGFTAIWISPIVENIPDDTGYGYAYHGYWMKDIFALNTNFGTADDLIALATELHNRGMYLMVDIVVNHFAFSGSHADVDYSEYFPYSSEDYFHSFCWITDYSNETNVEQCWLGDDTVPLVDVNTELDTVKSEYQSWVEELIANYSIDGLRIDTVKHVEMDFWAPFEEAAGIYAVGEVFDGDPSYTCPYEENLDGVLNYPVYYPVVSAFESVSGSVSSLVDMIDTLKSECTDTTLLGSFLENEDNPRFPSYTSDESLIKNAIAFTMLSDGIPIIYYGEEQGLNGGNDPYNREALWLTGYSTTSTFYKYIASLNEIRNEAIYKDDTYLTYENWVIYSDSTTIAMRKGFTGNEIITVLSNLGTSGSSYTLTLSNTGYTASSVVYEILTCTAVTVDSSGNLAVPMSSGLPKVFYEESQLVGSGICSM
modifications: E. coli BL21(DE3)pLysS
notes: ID; No. 1, expressed in E. coli; hydrolyzes amylopectin, starch, glycogen and amylose
optimum pH [1]: 6 pH
pH range in which activity is 90% of its maximum [1]: 5-8 pH
pH range in which amylase activity is kept stably [1]: 5-8 pH
temperature of optimal activity ([1]; 1% (w/v) starch): 40 °C
temperature range of stability ([1]; 1% (w/v) starch): 20-50 °C
activity after incubation, relative to stable temperatures ([1]; incubation at 60° C. for 3 hours): 70%
degradation of pullulan (in words) [2]: degrade; also recorded: weakly
Relative Activity (%) ([2]; substrate Pullulan, relative to starch): 3%
degradation of amylose (in words) [3]: weakly
Relative Activity (%) ([3]; substrate Amylose, relative to starch): 41%
degradation of glycogen (in words) [4]: strongly
Relative Activity (%) ([4]; substrate Glycogen, relative to starch): 80%
effect on enzyme activity ([5]; 1 mM EDTA): inhibited
increase of starch degradation activity ([5]; 5 mM Ca+): about 315%
effect on starch degradation activity ([5]; 5 mM Cu^2+): inhibited
increase of starch degradation activity ([5]; 5 mM Mg^2+): ~220%
increase in activity ([5]; 10-20% ethanol solution): 1.25-1.33 fold
increase in activity ([5]; 10-40% acetone): 1.03-1.22 fold
activity relative to optimal activity ([5]; 60% acetone): lower than 50%
activity relative to optimal activity ([5]; 60% ethanol): lower than 50%
Relative Activity (%) ([5]; Acetone 20%): 122%
Relative Activity (%) ([5]; Acetone 30%): 115%
Relative Activity (%) ([5]; CaCl2 5 mM): 315%
Relative Activity (%) ([5]; CaCl2 + EDTA 5 mM/1 mM): 185%
Relative Activity (%) ([5]; CuSO4 5 mM): 20%
Relative Activity (%) ([5]; CuSO4 + EDTA 5 mM/1 mM): 12%
Relative Activity (%) ([5]; EDTA 1 mM): 46%
Relative Activity (%) ([5]; EGTA 1 mM): 105%
effect on enzyme activity ([5]; EGTA (1 mM; EGTA-containing solution)): not inhibited; also recorded: not influenced
Relative Activity (%) ([5]; MgCl2 5 mM): 220%
Relative Activity (%) ([5]; MgCl2 + EDTA 5 mM/1 mM): 129%
effect on starch degradation activity ([5]; SDS): completely inhibited
Relative Activity (%) ([5]; SDS 0.1%): 66%
Relative Activity (%) ([5]; SDS 0.5%): 49%
Relative Activity (%) ([5]; SDS 1%): 24%
Relative Activity (%) ([5]; SDS 2%): 12%
Relative Activity (%) ([5]; Urea 2M): 115%
effect on starch degradation activity ([5]; acetone): increased
Relative Activity (%) ([5]; additive: None, 2% starch, 37° C., 30 min): 100%
effect on starch degradation activity ([5]; urea): increased
degradation products of G6 [6]: G2+G4 or into G3+G3
hydrolysis of G2 [6]: did not hydrolyze
hydrolysis of G3 [6]: did not hydrolyze
starch degradation on gel, iodine staining [7]: clear zone
degradation of starch (soluble) (in words) [8]: strongly
Relative Activity (%) ([8]; substrate Starch): 100%
degradation of amylopectin (in words) [9]: strongly
Relative Activity (%) ([9]; substrate Amylopectin, relative to starch): 141%
degradation of amylodextrin (in words) [10]: weakly
Relative Activity (%) ([10]; substrate Amylodextrin, relative to starch): 17%
hydrolysis products, early stage of reaction [11]: oligosaccharides larger than maltopentaose were produced
hydrolysis products, final [11]: maltotriose and maltotetraose were predominant
degradation of dextran (in words) [12]: degrade; also recorded: weakly
Relative Activity (%) ([12]; substrate Dextran, relative to starch): 4%
degradation of a-cyclodextrin (in words) [13]: degrade; also recorded: weakly
Relative Activity (%) ([13]; substrate alpha-CD, relative to starch): 4%
